# Reference: patent US20160272689A1
# Molecular target: Fc-tagged extracellular domain of mouse RPTPσ (wild type) (mouse) (UniProt B0V2N1)
# Test: ELISA: Fc-tagged RPTPσ (2 µg/ml) on protein G plates; biotinylated aggrecan 5 µg/ml preincubated with protamine 0-5 µg/ml; streptavidin-HRP, A450
# Sequence of biotinylated bovine aggrecan, P13608 17-2364 (ligand; biotinylated (sites not stated); natural chondroitin sulphate side chains of the proteoglycan) (P13608 17-2364 limits assumed): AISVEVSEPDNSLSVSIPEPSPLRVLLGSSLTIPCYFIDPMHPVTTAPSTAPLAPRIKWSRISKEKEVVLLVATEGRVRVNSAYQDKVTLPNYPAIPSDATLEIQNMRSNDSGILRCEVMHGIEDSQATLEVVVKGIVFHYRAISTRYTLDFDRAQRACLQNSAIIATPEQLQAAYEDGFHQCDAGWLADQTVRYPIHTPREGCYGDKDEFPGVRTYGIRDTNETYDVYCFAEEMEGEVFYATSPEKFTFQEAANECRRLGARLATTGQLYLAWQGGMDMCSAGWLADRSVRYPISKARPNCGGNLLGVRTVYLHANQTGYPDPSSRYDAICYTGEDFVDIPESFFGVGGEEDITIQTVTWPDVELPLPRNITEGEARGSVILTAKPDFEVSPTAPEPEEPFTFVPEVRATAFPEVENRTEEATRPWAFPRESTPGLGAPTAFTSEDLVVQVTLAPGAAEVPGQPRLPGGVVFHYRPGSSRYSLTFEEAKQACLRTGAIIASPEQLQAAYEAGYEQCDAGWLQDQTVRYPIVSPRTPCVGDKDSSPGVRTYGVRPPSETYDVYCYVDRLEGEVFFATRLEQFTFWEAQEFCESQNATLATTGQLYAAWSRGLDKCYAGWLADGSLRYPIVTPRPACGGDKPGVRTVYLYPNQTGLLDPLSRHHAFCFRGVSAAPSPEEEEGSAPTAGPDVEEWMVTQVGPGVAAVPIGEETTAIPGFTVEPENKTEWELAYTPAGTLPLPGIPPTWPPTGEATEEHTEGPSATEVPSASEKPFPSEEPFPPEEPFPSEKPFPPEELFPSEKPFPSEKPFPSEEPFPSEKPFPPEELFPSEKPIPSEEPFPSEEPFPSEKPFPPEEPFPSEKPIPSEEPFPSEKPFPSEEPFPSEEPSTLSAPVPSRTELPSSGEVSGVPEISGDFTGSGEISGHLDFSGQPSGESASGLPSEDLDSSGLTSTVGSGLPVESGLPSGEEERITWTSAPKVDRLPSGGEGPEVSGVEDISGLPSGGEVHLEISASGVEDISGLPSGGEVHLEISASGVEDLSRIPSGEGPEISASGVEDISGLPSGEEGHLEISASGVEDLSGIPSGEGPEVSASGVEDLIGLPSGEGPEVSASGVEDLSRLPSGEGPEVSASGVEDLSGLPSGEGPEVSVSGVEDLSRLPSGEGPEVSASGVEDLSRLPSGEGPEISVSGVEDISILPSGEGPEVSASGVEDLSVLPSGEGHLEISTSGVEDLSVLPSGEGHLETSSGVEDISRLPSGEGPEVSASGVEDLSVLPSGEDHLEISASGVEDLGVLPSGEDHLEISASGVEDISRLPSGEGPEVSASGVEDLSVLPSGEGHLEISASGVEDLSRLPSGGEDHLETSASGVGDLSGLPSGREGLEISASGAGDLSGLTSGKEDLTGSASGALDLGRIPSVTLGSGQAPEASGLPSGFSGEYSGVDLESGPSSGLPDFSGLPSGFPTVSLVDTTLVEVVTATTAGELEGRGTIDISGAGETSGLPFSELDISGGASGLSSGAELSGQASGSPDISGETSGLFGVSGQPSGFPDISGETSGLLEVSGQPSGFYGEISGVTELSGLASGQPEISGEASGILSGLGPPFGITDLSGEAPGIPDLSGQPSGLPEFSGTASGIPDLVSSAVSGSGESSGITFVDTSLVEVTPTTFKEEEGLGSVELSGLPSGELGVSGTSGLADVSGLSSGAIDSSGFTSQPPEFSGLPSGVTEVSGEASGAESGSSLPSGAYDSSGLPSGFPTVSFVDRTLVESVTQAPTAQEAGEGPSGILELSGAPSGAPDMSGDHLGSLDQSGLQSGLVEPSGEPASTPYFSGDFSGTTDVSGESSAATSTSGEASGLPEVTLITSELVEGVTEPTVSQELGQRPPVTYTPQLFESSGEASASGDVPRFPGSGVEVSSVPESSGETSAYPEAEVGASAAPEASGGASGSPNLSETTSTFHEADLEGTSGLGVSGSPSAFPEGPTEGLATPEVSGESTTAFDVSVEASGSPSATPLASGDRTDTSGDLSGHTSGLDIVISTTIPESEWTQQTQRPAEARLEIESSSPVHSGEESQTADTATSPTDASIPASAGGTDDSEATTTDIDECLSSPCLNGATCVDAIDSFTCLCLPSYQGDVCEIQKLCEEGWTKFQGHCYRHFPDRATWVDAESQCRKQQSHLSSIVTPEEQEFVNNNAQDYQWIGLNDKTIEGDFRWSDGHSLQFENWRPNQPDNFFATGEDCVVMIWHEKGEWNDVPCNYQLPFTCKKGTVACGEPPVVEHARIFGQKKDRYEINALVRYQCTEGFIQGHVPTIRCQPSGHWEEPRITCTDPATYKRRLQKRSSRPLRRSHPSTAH
# Sequence of Fc-tagged extracellular domain of mouse RPTPσ (wild type) (mouse) (B0V2N1 30-1257): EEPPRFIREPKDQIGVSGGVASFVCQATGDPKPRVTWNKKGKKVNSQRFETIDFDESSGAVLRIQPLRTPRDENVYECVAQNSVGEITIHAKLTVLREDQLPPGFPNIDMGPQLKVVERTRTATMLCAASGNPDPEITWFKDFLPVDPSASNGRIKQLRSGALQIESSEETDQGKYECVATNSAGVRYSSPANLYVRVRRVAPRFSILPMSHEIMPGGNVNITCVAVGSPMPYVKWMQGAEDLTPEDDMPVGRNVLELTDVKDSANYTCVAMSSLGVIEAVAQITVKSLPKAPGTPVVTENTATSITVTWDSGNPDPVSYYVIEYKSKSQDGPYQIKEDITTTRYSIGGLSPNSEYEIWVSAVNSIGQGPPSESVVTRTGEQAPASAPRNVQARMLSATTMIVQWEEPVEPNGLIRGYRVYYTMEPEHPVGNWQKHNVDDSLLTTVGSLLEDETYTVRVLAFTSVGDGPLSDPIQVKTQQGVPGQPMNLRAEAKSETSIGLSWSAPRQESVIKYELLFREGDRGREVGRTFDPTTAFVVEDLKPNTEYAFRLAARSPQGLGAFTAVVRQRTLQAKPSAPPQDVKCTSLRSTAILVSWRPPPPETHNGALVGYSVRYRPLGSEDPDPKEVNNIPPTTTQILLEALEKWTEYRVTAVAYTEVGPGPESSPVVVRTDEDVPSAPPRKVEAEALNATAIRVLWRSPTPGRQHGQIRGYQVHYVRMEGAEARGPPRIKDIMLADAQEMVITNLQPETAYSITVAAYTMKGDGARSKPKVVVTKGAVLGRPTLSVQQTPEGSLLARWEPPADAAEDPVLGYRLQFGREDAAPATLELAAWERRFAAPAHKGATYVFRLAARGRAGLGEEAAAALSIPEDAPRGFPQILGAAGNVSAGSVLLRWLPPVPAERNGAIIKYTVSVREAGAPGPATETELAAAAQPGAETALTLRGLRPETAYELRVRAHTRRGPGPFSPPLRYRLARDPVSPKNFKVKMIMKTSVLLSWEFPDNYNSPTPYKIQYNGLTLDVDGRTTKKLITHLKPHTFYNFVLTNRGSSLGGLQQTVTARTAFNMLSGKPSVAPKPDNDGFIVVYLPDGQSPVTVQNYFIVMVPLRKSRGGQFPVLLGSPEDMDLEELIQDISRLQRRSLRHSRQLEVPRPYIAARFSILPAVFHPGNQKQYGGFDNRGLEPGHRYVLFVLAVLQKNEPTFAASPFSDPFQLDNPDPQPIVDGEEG
substance,measurement,value
"biotinylated bovine aggrecan, P13608 17-2364 (ligand; biotinylated (sites not stated); natural chondroitin sulphate side chains of the proteoglycan)",fold increase of binding in the presence of protamine,2 fold
